# Experimental data taken from patent US20260167721A1 (ABLEXIS, published 2026).
# B1: CD3 × CD33-BspAb80 (bispecific antibody)
# chain 1: QVQLQESGPGLVKPSETLSLTCTVSGGSISSYYWSWIRQPAGKCLEWIGRIYTSGSTKYNPSLKSRVTMSVDTSKNQFSLKLISVTAADTAVYFCARERIRDLYFDYWGQGTLVTVSSGGGGSGGGGSGGGGSGGGGSNFMLTQPHSVSESPGKTVTISCTRTSGSIASNYVQWYQQRPGSSPTTVIYEDNQRPSGVPDRFSGSIDSSSNSASLTISGLKTEDEAAYYCQSYDRSNRVFGCGTKLTVLDKTHTCPPCPAPEFEGGPSVFLFPPKPKDTLMISRTPEVTCVVVDVSHEDPEVKFNWYVDGVEVHNAKTKPREEQYNSTYRVVSVLTVLHQDWLNGKEYKCKVSNKALPASIEKTISKAKGQPREPQVYTLPPCREEMTKNQVSLWCLVKGFYPSDIAVEWESNGQPENNYKTTPPVLDSDGSFFLYSKLTVDKSRWQQGNVFSCSVMHEALHNHYTQKSLSLSPGK
# chain 2: EVQLVQSGAEVKKPGSSVKVSCKASGYTITDSNIHWVRQAPGQSLEWIGYIYPYNGGTDYNQKFKNRATLTVDNPTNTAYMELSSLRSEDTAFYYCVNGNPWLAYWGQGTLVTVSSASTKGPSVFPLAPSSKSTSGGTAALGCLVKDYFPEPVTVSWNSGALTSGVHTFPAVLQSSGLYSLSSVVTVPSSSLGTQTYICNVNHKPSNTKVDKRVEPKSCDKTHTCPPCPAPEFEGGPSVFLFPPKPKDTLMISRTPEVTCVVVDVSHEDPEVKFNWYVDGVEVHNAKTKPREEQYNSTYRVVSVLTVLHQDWLNGKEYKCKVSNKALPASIEKTISKAKGQPREPQVCTLPPSREEMTKNQVSLSCAVKGFYPSDIAVEWESNGQPENNYKTTPPVLDSDGSFFLVSKLTVDKSRWQQGNVFSCSVMHEALHNRFTQKSLSLSPGK
# chain 3: DIQLTQSPSTLSASVGDRVTITCRASESLDNYGIRFLTWFQQKPGKAPKLLMYAASNQGSGVPSRFSGSGSGTEFTLTISSLQPDDFATYYCQQTKEVPWSFGQGTKVEVKRTVAAPSVFIFPPSDEQLKSGTASVVCLLNNFYPREAKVQWKVDNALQSGNSQESVTEQDSKDSTYSLSSTLTLSKADYEKHKVYACEVTHQGLSSPVTKSFNRGEC
# B2: CD3 × CD33-BspAb86 (bispecific antibody)
# scFv-Fc: EVQLVESGGGLVKPGGSLRLSCAASGFTFSSYSMNWVRQAPGKCLEWVSSISRSGTYIYYADSVKGRFTISRDNAKNSLYLQMNSLRAEDTAVYYCARERWELLYFDYWGQGTLVTVSSGGGGSGGGGSGGGGSGGGGSQTVVTQEPSLTVSPGGTVTLTCASSTGAVTSGYYPNWFQQKPGQAPRALIYSTSNKHSWTPARFSGSLLGGKAALTLSGVQPEDEAEYYCLLYYGGAYVFGCGTKVTVLGGGGSDKTHTCPPCPAPEFEGGPSVFLFPPKPKDTLMISRTPEVTCVVVDVSHEDPEVKFNWYVDGVEVHNAKTKPREEQYNSTYRVVSVLTVLHQDWLNGKEYKCKVSNKALPASIEKTISKAKGQPREPQVYTLPPCREEMTKNQVSLWCLVKGFYPSDIAVEWESNGQPENNYKTTPPVLDSDGSFFLYSKLTVDKSRWQQGNVFSCSVMHEALHNHYTQKSLSLSPGK
# heavy: B1 chain 2
# light: B1 chain 3
# notes: KiH heterodimer
# B3: CD3 × CD33-BspAb84 (bispecific antibody)
# scFv-Fc: EVQVAESGGGLVKPGGSLRLSCAASGFTFSRYSMNWVRQAPGKCLEWVSSISSSGSYTYYADSVKGRFTISRDNAKNSLYLQMNSLRAEDTAVYYCVRERGKGAGMDVWGQGTTVTVSSGGGGSGGGGSGGGGSGGGGSNFMLTQPHSVSESPGKTVTISCTRSSGSIASNYVQWYQQRPGSSPTTVIYEDNQRPSGVPDRFSGSIDSSSNSASLTISGLKTEDEADYYCQSYDSSNRVFGCGTKLTVLGGGGSDKTHTCPPCPAPEFEGGPSVFLFPPKPKDTLMISRTPEVTCVVVDVSHEDPEVKFNWYVDGVEVHNAKTKPREEQYNSTYRVVSVLTVLHQDWLNGKEYKCKVSNKALPASIEKTISKAKGQPREPQVYTLPPCREEMTKNQVSLWCLVKGFYPSDIAVEWESNGQPENNYKTTPPVLDSDGSFFLYSKLTVDKSRWQQGNVFSCSVMHEALHNHYTQKSLSLSPGK
# heavy: B1 chain 2
# light: B1 chain 3
# notes: KiH heterodimer
# B4: CD3 × CD33-BspAb81 (bispecific antibody)
# chain 1: QVQLQESGPGLVKPSQTLSLTCTVSGGSISSGGYYWSWIRQHPGKCLEWIGYIYYSGSTYYNPSLKSRVTISVDTSKDQFSLKLSSVTAADTAVYYCARERKTSLPFDIWGQGTMVTVSSGGGGSGGGGSGGGGSGGGGSNFMLTQPHSVSESPGKTVTISCTRSSGSIASNYVQWYQQRPGSSPTTVIYEDNQRPSGVPDRFSGSIDSSSNSASLTISGLKTEDEAYYYCQSFDSSNRVFGCGTKLTVLDKTHTCPPCPAPEFEGGPSVFLFPPKPKDTLMISRTPEVTCVVVDVSHEDPEVKFNWYVDGVEVHNAKTKPREEQYNSTYRVVSVLTVLHQDWLNGKEYKCKVSNKALPASIEKTISKAKGQPREPQVYTLPPCREEMTKNQVSLWCLVKGFYPSDIAVEWESNGQPENNYKTTPPVLDSDGSFFLYSKLTVDKSRWQQGNVFSCSVMHEALHNHYTQKSLSLSPGK
# chain 2: B1 chain 2
# chain 3: B1 chain 3
# B5: CD3 × CD33-BspAb85 (bispecific antibody)
# scFv-Fc: EVQLVESGGGLVKPGGSLRLSCAASGFTFSSYSMNWVRQAPGKCLEWVSSISRSSGYIFYADSVKGRFTISRDNAKNSLYLQMNSLRAEDTAVYYCVRERVGAGFDYWGQGTLVTVSSGGGGSGGGGSGGGGSGGGGSNFMLTQPHSVSESPGKTVAISCTRSSGSIASNYVQWYQQRPGSSPTAVIYEDNQRPSGVPDRFSGSIDSSSNSAFLTISGLKTEDEADYYCQSYDSSNRVFGCGTKLTVLGGGGSDKTHTCPPCPAPEFEGGPSVFLFPPKPKDTLMISRTPEVTCVVVDVSHEDPEVKFNWYVDGVEVHNAKTKPREEQYNSTYRVVSVLTVLHQDWLNGKEYKCKVSNKALPASIEKTISKAKGQPREPQVYTLPPCREEMTKNQVSLWCLVKGFYPSDIAVEWESNGQPENNYKTTPPVLDSDGSFFLYSKLTVDKSRWQQGNVFSCSVMHEALHNHYTQKSLSLSPGK
# heavy: B1 chain 2
# light: B1 chain 3
# notes: KiH heterodimer
# B6: CD3 × CD33-BspAb82 (bispecific antibody)
# chain 1: EVQLVESGGGLVKPGGSLRLSCAASGLTFSTYSMNWVRQAPGKCLEWVSSISSSGSYVYYADSVKGRFTMSRDNAKNSLYLQMNSLRAEDTAVYYCARERRELLFDYWGQGTLVTVSSGGGGSGGGGSGGGGSGGGGSNFMLTQPHSVSESPGKTVTISCTRSSGSIASNYVQWYQQRPGSSPTSVIYEDNQRPSGVPDRFSGSIDSSSNSASLTISGLKTEDEADYYCQSYDRSNRVFGCGTKLTVLDKTHTCPPCPAPEFEGGPSVFLFPPKPKDTLMISRTPEVTCVVVDVSHEDPEVKFNWYVDGVEVHNAKTKPREEQYNSTYRVVSVLTVLHQDWLNGKEYKCKVSNKALPASIEKTISKAKGQPREPQVYTLPPCREEMTKNQVSLWCLVKGFYPSDIAVEWESNGQPENNYKTTPPVLDSDGSFFLYSKLTVDKSRWQQGNVFSCSVMHEALHNHYTQKSLSLSPGK
# chain 2: B1 chain 2
# chain 3: B1 chain 3
# B7: CD3 × CD33-BspAb89 (bispecific antibody)
# scFv-Fc: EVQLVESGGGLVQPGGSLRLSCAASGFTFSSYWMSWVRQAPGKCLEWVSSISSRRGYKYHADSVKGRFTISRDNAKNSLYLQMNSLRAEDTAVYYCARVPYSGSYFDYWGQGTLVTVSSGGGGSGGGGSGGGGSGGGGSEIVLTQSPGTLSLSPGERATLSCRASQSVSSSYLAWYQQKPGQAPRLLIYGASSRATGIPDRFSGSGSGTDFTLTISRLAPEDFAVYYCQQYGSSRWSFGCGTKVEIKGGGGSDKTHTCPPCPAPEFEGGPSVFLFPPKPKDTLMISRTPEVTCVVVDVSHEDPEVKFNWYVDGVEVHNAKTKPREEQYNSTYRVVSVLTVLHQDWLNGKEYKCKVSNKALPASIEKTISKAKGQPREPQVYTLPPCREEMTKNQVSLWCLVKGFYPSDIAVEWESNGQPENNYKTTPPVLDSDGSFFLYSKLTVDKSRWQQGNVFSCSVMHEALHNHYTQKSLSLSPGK
# heavy: B1 chain 2
# light: B1 chain 3
# notes: KiH heterodimer
# B8: CD3 × CD33-BspAb83 (bispecific antibody)
# chain 1: EVQLVESGGGLVKPGGSLRLSCVASGFTFSRYSMNWVRQAPGKCLEWVSSISSSSRYTYYADSLKGRFIMSRDNAKNSLFLQMNSLRAEDTAVYYCARNLYNALDYWGQGTLVTVSSGGGGSGGGGSGGGGSGGGGSFMLTQPHSVSESPGKTVTISCTRSSGSIASNYVQWYQQRPGSSPTTVIYEDNQRPSGVPDRFSGSIDSSSNSASLTISGLQTEDEADYYCQSYDSSNRVFGCGTKLTVLDKTHTCPPCPAPEFEGGPSVFLFPPKPKDTLMISRTPEVTCVVVDVSHEDPEVKFNWYVDGVEVHNAKTKPREEQYNSTYRVVSVLTVLHQDWLNGKEYKCKVSNKALPASIEKTISKAKGQPREPQVYTLPPCREEMTKNQVSLWCLVKGFYPSDIAVEWESNGQPENNYKTTPPVLDSDGSFFLYSKLTVDKSRWQQGNVFSCSVMHEALHNHYTQKSLSLSPGK
# chain 2: B1 chain 2
# chain 3: B1 chain 3
# Molecular target: T1, human CD3 (TCR/CD3 complex on the cell surface) (human, UniProt P07766 23-207; P04234 22-171; P09693 23-182)
# T1 construct: whole, on cells; Native CD3 on human Pan-T cells or Jurkat wild-type cells; also called CD3 on Pan-T cells; CD3 on Jurkat WT cells
# T1 sequence (P07766 23-207, chain 1 of 3): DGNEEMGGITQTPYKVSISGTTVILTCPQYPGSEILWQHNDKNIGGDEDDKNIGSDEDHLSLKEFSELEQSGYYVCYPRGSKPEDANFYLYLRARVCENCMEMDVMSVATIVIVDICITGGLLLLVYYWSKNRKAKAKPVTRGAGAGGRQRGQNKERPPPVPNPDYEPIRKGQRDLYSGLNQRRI
# T1 sequence (P04234 22-171, chain 2 of 3): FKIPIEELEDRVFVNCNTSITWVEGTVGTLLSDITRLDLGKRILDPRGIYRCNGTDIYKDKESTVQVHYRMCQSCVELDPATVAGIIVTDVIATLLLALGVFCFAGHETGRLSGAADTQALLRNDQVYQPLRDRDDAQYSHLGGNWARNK
# T1 sequence (P09693 23-182, chain 3 of 3): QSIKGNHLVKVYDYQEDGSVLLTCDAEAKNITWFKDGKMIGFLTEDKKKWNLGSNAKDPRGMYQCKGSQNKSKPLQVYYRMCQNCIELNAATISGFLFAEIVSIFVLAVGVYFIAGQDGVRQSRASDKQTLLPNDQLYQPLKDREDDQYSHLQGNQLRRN
# Assay: flow cytometry, Jurkat WT gMFI over Jurkat KO gMFI, 1 ug/mL
row,Binder,Jurkat WT/KO (Fold) [fold]
1,B1,13.1
2,B2,1.4
3,B3,10.8
4,B4,7.1
5,B5,6.2
6,B6,12.9
7,B7,0.8
8,B8,14

# Molecular target: T1, human CD3 (TCR/CD3 complex on the cell …)
# Assay: flow cytometry, Jurkat WT cells, 1 ug/mL
row,Binder,gMFI [gMFI]
1,B1,50500
2,B2,3180
3,B3,35200
4,B4,24100
5,B5,18900
6,B6,54500
7,B7,1840
8,B8,67700

# Molecular target: T1, human CD3 (TCR/CD3 complex on the cell …)
# Assay: flow cytometry, Jurkat WT cells, 10 ug/mL
row,Binder,gMFI [gMFI]
1,B1,59400
2,B2,9550
3,B3,51000
4,B4,55100
5,B5,32000
6,B6,58600
7,B7,1750
8,B8,69100

# Molecular target: T1, human CD3 (TCR/CD3 complex on the cell …)
# Assay: flow cytometry, Jurkat WT gMFI over Jurkat KO gMFI, 10 ug/mL
row,Binder,Jurkat WT/KO (Fold) [fold]
1,B1,15
2,B2,3.9
3,B3,13.9
4,B4,13.5
5,B5,9.9
6,B6,14.4
7,B7,0.9
8,B8,14.3

# Molecular target: T1, human CD3 (TCR/CD3 complex on the cell …)
# Assay: flow cytometry, Pan-T cells, 10 ug/mL
Binder,% Positive [%],gMFI [gMFI]
B1,99.8,486000
B2,92.4,25400
B3,99.9,362000
B4,99.8,369000
B5,99.7,249000
B6,99.9,462000
B7,1.7,1960
B8,99.8,598000

# Molecular target: T1, human CD3 (TCR/CD3 complex on the cell …)
# Assay: flow cytometry, Pan-T cells, 1 ug/mL
Binder,% Positive [%],gMFI [gMFI]
B1,99.7,330000
B2,35.2,5410
B3,99.9,173000
B4,99.7,79900
B5,99.4,96000
B6,99.5,319000
B7,0.6,1830
B8,99.8,566000
